Data from patent US20230125550A1 (ARCELLX, published 2023).
Numbering of substitutions follows the chain as printed.

T1: recombinant human CD123-Fc (human, UniProt P26951 19-305)
T1 construct: not shown: Fc part of CD123-Fc
T1 sequence: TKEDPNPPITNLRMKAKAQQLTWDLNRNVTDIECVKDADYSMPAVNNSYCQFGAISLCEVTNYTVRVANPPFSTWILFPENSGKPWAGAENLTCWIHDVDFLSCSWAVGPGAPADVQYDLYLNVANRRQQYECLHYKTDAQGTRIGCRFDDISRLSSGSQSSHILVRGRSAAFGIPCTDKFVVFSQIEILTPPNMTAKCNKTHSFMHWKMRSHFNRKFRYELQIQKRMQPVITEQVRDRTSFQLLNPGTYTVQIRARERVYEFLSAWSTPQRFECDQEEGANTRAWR

B1: SEQ ID NO 692 (designed binder)
chain: MGSWSEFEYRLFAIENRLDALGGSEAELAAFEKEIAAFESELQAYKGKGNPEVEFLREEAAMIRQLLQAYRHN
B2: SEQ ID NO 677 (designed binder)
chain: MGSWGEFWARLEAIWIRLDALGGSEAELAAFEKEIAAFESELQAYKGKGNPEVEWLREEAADIRRSLQAYRHN
B3: SEQ ID NO 736 (designed binder)
chain: MGSWFEFVDRLEAIEMRLFALGGSEAELAAFEKEIAAFESELQAYKGKGNPEVELLRWRAAMIRYDLQAYRHN
B4: SEQ ID NO 730 (designed binder)
chain: MGSWWEFEDRLMAIYDRLYALGGSEAELAAFEKEIAAFESELQAYKGKGNPEVEYLRAEAALIRETLQAYRHN
B5: SEQ ID NO 731 (designed binder)
chain: B4 chain with W5F, M12Y, Y15E, A58W, E59G, L62T, E65D, T66E
B6: SEQ ID NO 700 (designed binder)
chain: MGSWNEFYDRLSAIYFRLQALGGSEAELAAFEKEIAAFESELQAYKGKGNPEVEHLRWYAADIRMILQAYRHN
B7: SEQ ID NO 703 (designed binder)
chain: B6 chain with N5V, S12H, Q19L, H55D, M65L, I66V
B8: SEQ ID NO 699 (designed binder)
chain: B6 chain with N5Y, F16A, H55D, M65Y, I66M
B9: SEQ ID NO 701 (designed binder)
chain: B6 chain with S24F
B10: SEQ ID NO 698 (designed binder)
chain: B6 chain with N5Y, D9N, F16A, H55D, M65Y, I66M
B11: SEQ ID NO 702 (designed binder)
chain: B6 chain with N5E, S12G, Y15F, F16A, Q19H, H55D
B12: SEQ ID NO 704 (designed binder)
chain: B6 chain with N5K, Y8D, D9N, S12Y, Y15E, F16D, Q19R
B13: SEQ ID NO 728 (designed binder)
chain: MGSWYEFEERLEAIEDRLWALGGSEAELAAFEKEIAAFESELQAYKGKGNPEVEWLREQAAFIRTMLQAYRHN
B14: SEQ ID NO 691 (designed binder)
chain: B1 chain with S5Y, Y9D, F12D, E15Q, N16W, D19W, E59S, M62N, L66H
B15: SEQ ID NO 734 (designed binder)
chain: B4 chain with W5E, E8T, M12W, Y15E, Y55W, A58D, L62F, E65K, T66S
B16: SEQ ID NO 738 (designed binder)
chain: B1 chain with S5F, Y9I, F12E, N16D, D19F, E58D, M62E, L66V
B17: SEQ ID NO 729 (designed binder)
chain: B4 chain with W5F, D9W, M12E, Y15F, Y55V, L62E, E65L, T66R
B18: SEQ ID NO 740 (designed binder)
chain: B13 chain with Y5I, E9D, W19F, E58Q, Q59E, F62E, T65L
B19: SEQ ID NO 737 (designed binder)
chain: B13 chain with Y5W, E9M, W19F, W55S, E58W, Q59E, T65D, M66I
B20: SEQ ID NO 732 (designed binder)
chain: B2 chain with G5I, A9D, W15E, I16D, D19W, W55E, E58D, D62W, R65D
B21: SEQ ID NO 739 (designed binder)
chain: B13 chain with E8Y, E9Q, W19F, E58D, Q59E, F62E, T65V, M66V
B22: SEQ ID NO 735 (designed binder)
chain: B3 chain with F5V, M16D, L55F, W58D, R59Q, M62Y, Y65F, D66M
B23: SEQ ID NO 733 (designed binder)
chain: B4 chain with W5F, E8W, M12D, Y15E, Y55E, A58D, L62W, E65G
B24: SEQ ID NO 697 (designed binder)
chain: MGSWVEFWHRLDAIKARLNALGGSEAELAAFEKEIAAFESELQAYKGKGNPEVEDLRWYAADFRLILQAYRHN
B25: SEQ ID NO 934 (designed binder)
chain: MGSWSEFWFRLHAILYRLQALGGSEAELAAFEKEIAAFESELQAYKGKGNPEVETLRDAAAEIRVALQAYRHN
B26: SEQ ID NO 924 (designed binder)
chain: MGSWLVFKDELAGIKNYLEALGGSEAELATFEQDIAWFEQWLQNYKGKGNPEVEALRKEAAAIRDELQAYRHN
B27: SEQ ID NO 922 (designed binder)
chain: MGSWWGFKVNLAWIKWKLEALGGSEAELAYFELWIANFEHSLQEYKGKGNPEVEALRKEAAAIRDELQAYRHN
B28: SEQ ID NO 925 (designed binder)
chain: MGSWKTFKIELAGIKLELEALGGSEAELAGFENAIAQFESSLQYYKGKGNPEVEALRKEAAAIRDELQAYRHN
B29: SEQ ID NO 936 (designed binder)
chain: MGSWVEFWIRLNAIKYRLLALGGSEAELAAFEKEIAAFESELQAYKGKGNPEVEKLRQDAADIRELLQAYRHN
B30: SEQ ID NO 938 (designed binder)
chain: B29 chain with V5W, W8Y, I9L, N12R, K15S, L19Q, K55G, D62E, E65K
B31: SEQ ID NO 937 (designed binder)
chain: B29 chain with V5T, I9W, N12S, K15V, L19N, K55E, Q58D, D59M, E65S
B32: SEQ ID NO 939 (designed binder)
chain: MGSWWEFHVRLRAIEYRLEALGGSEAELAAFEKEIAAFESELQAYKGKGNPEVEQLRLIAANIRHLLQAYRHN
B33: SEQ ID NO 942 (designed binder)
chain: B32 chain with H8Q, R12A, E19K, Q55N, L58Q, I59L, N62H, H65S, L66V
B34: SEQ ID NO 940 (designed binder)
chain: B32 chain with R12K, E19L, Q55D, L58Y, H65Q
B35: SEQ ID NO 943 (designed binder)
chain: B32 chain with H8Q, R12S, E19T, Q55E, L58Q, I59K, N62R, H65S
B36: SEQ ID NO 923 (designed binder)
chain: MGSWVNFKTHLARIKVHLEALGGSEAELALFEHDIANFEQVLQQYKGKGNPEVEALRKEAAAIRDELQAYRHN
B37: SEQ ID NO 930 (designed binder)
chain: MGSWFEFNIRLHAIEYRLKALGGSEAELAAFEKEIAAFESELQAYKGKGNPEVEELRNYAASIRKLLQAYRHN
B38: SEQ ID NO 931 (designed binder)
chain: B37 chain with N8E, H12R, K19S, E55K, N58E, Y59L, S62E, K65Y, L66A
B39: SEQ ID NO 944 (designed binder)
chain: B37 chain with F5W, E15D, E55L, N58E, Y59K, S62Q, K65A, L66Q
B40: SEQ ID NO 932 (designed binder)
chain: B37 chain with N8K, H12Y, E15Q, K19S, Y59L, S62E, K65H, L66S
B41: SEQ ID NO 921 (designed binder)
chain: MGSWHEFLRRLLAIEMRLYALGGSEAELAAFEKEIAAFESELQAYKGKGNPEVEHLRVRAASIRQMLQAYRHN
B42: SEQ ID NO 911 (designed binder)
chain: MGSWHEFRWRLFAIWQRLHALGGSEAELAAFEKEIAAFESELQAYKGKGNPEVEWLRLDAALIRVMLQAYRHN
B43: SEQ ID NO 920 (designed binder)
chain: B42 chain with H5Y, F12H, Q16L, H19G, L58Q, L62Q, V65Y, M66I
B44: SEQ ID NO 926 (designed binder)
chain: MGSWWEFKVRLSAIQYRLYALGGSEAELAAFEKEIAAFESELQAYKGKGNPEVEALREQAALIRTILQAYRHN
B45: SEQ ID NO 928 (designed binder)
chain: B32 chain with H8Q, E15Q, E19N, Q55Y, L58G, I59L, N62Q, H65F, L66D
B46: SEQ ID NO 929 (designed binder)
chain: B44 chain with V9I, S12Y, Q15E, Y19N, E58A, Q59K, L62Q, T65Y, I66N
B47: SEQ ID NO 935 (designed binder)
chain: B25 chain with S5I, F9V, H12N, Q19Y, T55A, A59S, V65R, A66W
B48: SEQ ID NO 927 (designed binder)
chain: B44 chain with K8H, V9I, S12H, Q15N, Y19A, Q59L, L62K, T65G, I66D
B49: SEQ ID NO 933 (designed binder)
chain: B32 chain with H8K, E19S, Q55E, L58V, I59L, N62S, H65I, L66H

Target: T1, recombinant human CD123-Fc
Assay: phage ELISA, A450 target/A450 IgG1-Fc
Outline: (§1)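 The ELISA ratio divides target absorbance by IgG1-Fc absorbance and averages this over all screened wells holding a given clone. Phage came from phagemid colonies picked from panning output and were rescued with VCSM13 helper phage in 96-well format. After coating with 1.3 microg/ml goat anti-human IgG1-Fc antibody, wells were loaded with 5 nM recombinant human target or IgG1-Fc, then with 50 microl phage diluted 5× in ELISA blocking buffer, and bound phage were read at 450 nm using HRP-conjugated anti-M13 antibody.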

Row | ELISA_avg [ratio] | Binder
1 | 3.2 | B1
2 | 15 | B2
3 | 7.1 | B3
4 | 15.3 | B4
5 | 4.7 | B5
6 | 10.6 | B6
7 | 4.8 | B7
8 | 5.3 | B8
9 | 9 | B9
10 | 10.6 | B10
11 | 3.9 | B11
12 | 3.9 | B12
13 | 6 | B13
14 | 6.3 | B14
15 | 8.9 | B15
16 | 3 | B16
17 | 6.9 | B17
18 | 21.8 | B18
19 | 4 | B19
20 | 4.5 | B20
21 | 3 | B21
22 | 4.9 | B22
23 | 4.9 | B23
24 | 3.5 | B24

Target: HER2 (Homo sapiens (Human), UniProt P04626 23-652)
Assay: phage ELISA, A450 target/A450 IgG1-Fc
Outline: as §1

Row | ELISA_avg [ratio] | Binder
25 | 14.8 | B25
26 | 3.28 | B26
27 | 8.69 | B27
28 | 4.95 | B28
29 | 10.6 | B29
30 | 5.1 | B30
31 | 5.76 | B31
32 | 5.48 | B32
33 | 6.33 | B33
34 | 4.56 | B34
35 | 9.61 | B35
36 | 7.91 | B36
37 | 7.86 | B37
38 | 7.75 | B38
39 | 9.75 | B39
40 | 13.1 | B40
41 | 8.15 | B41
42 | 10 | B42
43 | 7.18 | B43
44 | 5.17 | B44
45 | 14.4 | B45
46 | 4.49 | B46
47 | 3.91 | B47
48 | 11.9 | B48
49 | 10.1 | B49
